Measured values: patent US11702666B2, “Cell-based assay for determining activity in the retinoblastoma pathway” (Medical Diagnostic Laboratories, LLC, priority 2017, dated 2023)

Assays:
[1] = test system: E2F1/Dp-1 heterodimer; test: Rb activity assay (LB-Rb with E2F1-SB, DP1 split luciferase); type: cell-based, human; parameters: key to Observed activity: N—no activity; A—active as WT; R—reduced activity compared to the WT
Description: An assay that could measure the interaction between Rb, E2F1, and Dp-1 was developed. Since Dp-1 forms a heterodimer with E2F1 and that interaction is crucial for Rb/E2F1 binding, the assay was comprised of three components. When two proteins (Rb and E2F1) are in close proximity or in complex, a light signal was observed. For the purposes of the current assay, split-luciferase complementation was used to measure the interaction between Rb and E2F1. The NanoBiT assay system by Promega (Madison, Wis.; Dixon et al., 2015, ACS ChemBiol) was used in our split luciferase complementation design.
FIG. 16 depicts the design of a signal system to measure Rb activity. Under basal conditions inside the cell, Rb was active and interacted with the E2F1/Dp-1 heterodimer. For this assay design, cDNAs of Rb linked to different parts of the luciferase protein, either termed as the “Small BiT” (SB), or “Large BiT” (LB) and E2F1 linked to the opposite portion of the luciferase protein were created. When Rb and E2F1/Dp-1 bind, the NanoBiT parts of the luciferase form a complex and emitted a light signal when the luciferase (NanoGlo) substrate was added.
Using the described assay design, HEK293 CDK DKO cells were transiently transfected with different combinations of SB-Rb or LB-Rb and E2F1-LB or E2F1-SB components containing C-terminal and N-terminal constructs (FIG. 17). Relative intensities generated are presented in FIG. 17 as relative luminescence units (RLU). The data represents a sample experiment where each condition was performed in triplicate and represent mean+SD.
The LB-Rb and E2F1-SB with Dp-1 were tested for Rb activity using known Rb null mutants: R661W and C706F (FIG. 18A). […] Rb in-frame (del35) and out-of frame (del1) deletion mutants (FIG. 18B) were constructed and the observed luciferase activity was close to 0, in particular for del1 mutant, because Rb-E2F1 binding was destroyed.
Within the provided assay design, stable cell lines using the HEK293 CDK DKO cell parent line expressing E2F1-SB and Dp-1 were produced. After selection and screening for positive clones using an LB-Rb-mediated increase in signal, four stable single cell clones were selected and evaluated using different Rb mutants (FIGS. 19A and 19B). The response to E2F1 interaction was also checked by using the plasmid and linear form of DNA. Cell line #37 was selected for all our experiments in assay development due to its favorable response.
The conditions of the assay were further optimized by analyzing different cell numbers and Rb concentrations (FIG. 20). Based on the data, it was decided to use 0.2×10^6 cells/ml and 70 ng of DNA in the assay.
Known null and out/in-frame deletion mutants disrupting E2F1 binding and unknown COSMIC mutants were created to examine the ability of the assay to detect variants in Rb that affect function. We transfected WT or mutated Rb using similar conditions as previously indicated (FIG. 20). […] In addition, the null C706F and deletion (del1) mutants presented a signal close to zero as expected for loss of function mutants that disrupt E2F1 interaction. […] This confirmed that the assay was capable of determining the relative activity level of Rb mutants. The data is provided in Luminescence (RLU) of a single experiment with each condition performed in triplicate and represent average+SD.

[2] = test system: Rb/E2F1-Dp-1 complex; test: CDK4 mutant activity / drug resistance in NanoBiT assay, stable cell line #11; type: cell-based, human; settings: CDK4 mutants, compared to the WT (being 100%)
Protocol: A linear expression cassette of mutated CDK4 or CDK6 was generated by PCR mediated overlapping extension method. A pair of forward and reverse primers containing the targeted mutations was designed. The mutated codon was located in the middle of a primer flanked by 18-21 nucleotides on each side. Two PCRs (named as PCR #1 and PCR #2 in FIG. 1) were performed using UF-CMV forward and mutated reverse primers, or mutated forward and BGH-UR primers. The PCR products were cleaned up by ExoSAP-IT® (Affymetrix) to remove unconsumed dNTPs and primers. The treated PCR products were mixed together followed by dilution with water. A second round of PCR was performed using the diluted PCR mixture, and the UF and UR primers (FIG. 1). The amplified products were gel-purified. The DNA concentration was quantitated by the optical density at 260 nm using Nanodrop. The targeted mutations were incorporated in the CDK4 or CDK6 genes during the PCR mediated overlapping extension method. The introduced mutations were confirmed by the DNA sequencing.
To examine the ability of the assay to detect variants in CDK4 or CDK6 that affect function, kinase dead mutants and COSMIC (Catalogue Of Somatic Mutations in cancer) unknown mutants were created. For comparison, hyperactive CDK4 or CDK6 mutants known to be hyperactive due to less binding to natural inhibitor p16 were also created. The mutations in CDK4 or CDK6 were created by site-directed mutagenesis. WT or mutated CDK4 or CDK6 along with the CyclinD1 and SB-Rb were co-transfected, under similar conditions as previously indicated (see FIG. 9).
To examine the specificity of the assay, particular CDK4 kinase dead mutants were created. Modifications to D158 were made by changing aspartate to nonpolar alanine (D158A) or positively charged arginine (D158R). […] The mutations in CDK4 were created by site-directed mutagenesis. WT or mutated CDK4 along with the CyclinD1 and SB-Rb was co-transfected into the #11 cell line, under the same conditions as previously indicated. […] Kinase dead mutants have the high signal due to inability to phosphorylate Rb.
Computer modeling was used to reveal the drug-binding pocket and predict drug-resistant mutants. The mutations in CDK4 and CDK6 were created by site-directed mutagenesis. WT or mutated CDK4 or CDK6 along with the CyclinD1 and SB-Rb was co-transfected into #11 cell line, under the same conditions as previously indicated. […] Dose response curves are presented on FIG. 13A and FIG. 13B. Activity of other mutants was very similar to the WT or KD.
CDK4 and CDK6 mutants with known function and unknown function taken from the COSMIC database were analyzed in the present assay and are summarized in Table 7A and Table 7B. The mutants were classified according to their activity. Table 7A and Table 7B also show the number of counts per mutant in the COSMIC database, type of cancer, and luciferase activity compared to the WT (being 100%).

Chain of E2F1/Dp-1 heterodimer (Q01094 58-437 limits assumed): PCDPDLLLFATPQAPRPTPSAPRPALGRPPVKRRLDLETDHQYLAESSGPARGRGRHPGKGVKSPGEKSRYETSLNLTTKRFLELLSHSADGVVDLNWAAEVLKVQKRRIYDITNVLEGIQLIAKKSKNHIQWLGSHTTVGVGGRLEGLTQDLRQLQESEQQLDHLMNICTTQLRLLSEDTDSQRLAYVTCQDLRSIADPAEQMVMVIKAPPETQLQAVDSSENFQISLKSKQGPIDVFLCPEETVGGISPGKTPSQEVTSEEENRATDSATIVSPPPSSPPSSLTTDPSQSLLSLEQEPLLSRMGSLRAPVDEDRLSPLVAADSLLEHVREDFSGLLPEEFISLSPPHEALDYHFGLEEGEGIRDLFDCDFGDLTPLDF
Chain of E2F1/Dp-1 heterodimer (Q14186 whole entry, further chain): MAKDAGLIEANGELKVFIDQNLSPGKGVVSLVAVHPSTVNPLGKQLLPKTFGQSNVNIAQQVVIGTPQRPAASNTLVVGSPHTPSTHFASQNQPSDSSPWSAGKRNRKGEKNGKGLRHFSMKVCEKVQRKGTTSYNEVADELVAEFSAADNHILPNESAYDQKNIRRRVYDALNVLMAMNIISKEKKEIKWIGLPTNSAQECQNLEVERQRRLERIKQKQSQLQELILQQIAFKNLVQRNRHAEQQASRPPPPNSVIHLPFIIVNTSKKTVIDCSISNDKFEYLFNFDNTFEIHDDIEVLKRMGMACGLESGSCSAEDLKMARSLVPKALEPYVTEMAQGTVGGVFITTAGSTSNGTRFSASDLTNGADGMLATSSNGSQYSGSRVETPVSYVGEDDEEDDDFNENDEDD

Molecule | Luc. activity (/wt) [2] [%] | also measured
Rb R661W: known Rb null mutant (protein, UniProt P06400 2-928, looked up, variant R661W) Retinoblastoma-associated …: PPKTPRKTAATAAAAAAEPPAPPPPPPPEEDPEQDSGPEDLPLVRLEFEETEEPDFTALCQKLKIPDHVRERAWLTWEKVSSVDGVLGGYIQKKKELWGICIFIAAVDLDEMSFTFTELQKNIEISVHKFFNLLKEIDTSTKVDNAMSRLLKKYDVLFALFSKLERTCELIYLTQPSSSISTEINSALVLKVSWITFLLAKGEVLQMEDDLVISFQLMLCVLDYFIKLSPPMLLKEPYKTAVIPINGSPRTPRRGQNRSARIAKQLENDTRIIEVLCKEHECNIDEVKNVYFKNFIPFMNSLGLVTSNGLPEVENLSKRYEEIYLKNKDLDARLFLDHDKTLQTDSIDSFETQRTPRKSNLDEEVNVIPPHTPVRTVMNTIQQLMMILNSASDQPSENLISYFNNCTVNPKESILKRVKDIGYIFKEKFAKAVGQGCVEIGSQRYKLGVRLYYRVMESMLKSEEERLSIQNFSKLLNDNIFHMSLLACALEVVMATYSRSTSQNLDSGTDLSFPWILNVLNLKAFDFYKVIESFIKAEGNLTREMIKHLERCEHRIMESLAWLSDSPLFDLIKQSKDREGPTDHLESACPLNLPLQNNHTAADMYLSPVRSPKKKGSTTRVNSTANAETQATSAFQTQKPLKSTSLSLFYKKVYRLAYLWLNTLCERLLSEHPELEHIIWTLFQHTLQNEYELMRDRHLDQIMMCSMYGICKVKNIDLKFKIIVTAYKDLPHAVQETFKRVLIKEEEYDSIIVFYNSVFMQRLKTNILQYASTRPPTLSPIPHIPRSPYKFPSSPLRIPGGNIYISPLKSPYKISEGLPTPTKMTPRSRILVSIGESFGTSEKFQKINQMVCNSDRVLKRSAEGSNPPKPLKKLRFDIEGSDEADGSKHLPGESKFQQKLAEMTSTRTRMQKQKMNDSMDTSNKEEK |  | luciferase activity / E2F1 interaction of Rb mutant ([1]; LB-Rb and E2F1-SB with Dp-1): completely disrupted the E2F1 interaction; Observed activity ([1]; Rb mutants): N; % (/wt) ([1]; Rb mutants, activity relative to WT): 5.2%
CDK4 K155Q: CDK4 mutant from COSMIC database (protein, UniProt P11802 2-303, looked up, variant K155Q) Cyclin-dependent kinase 4: ATSRYEPVAEIGVGAYGTVYKARDPHSGHFVALKSVRVPNGGGGGGGLPISTVREVALLRRLEAFEHPNVVRLMDVCATSRTDREIKVTLVFEHVDQDLRTYLDKAPPPGLPAETIKDLMRQFLRGLDFLHANCIVHRDLKPENILVTSGGTVQLADFGLARIYSYQMALTPVVVTLWYRAPEVLLQSTYATPVDMWSVGCIFAEMFRRKPLFCGNSEADQLGKIFDLIGLPPEDDWPRDVSLPRGAFPPRGPRPVQSVVPEMEESGAQLLLEMLTFNPHKRISAFRALQHSYLHKDEGNPE | 130 | 
CDK4 S285C: CDK4 mutant from COSMIC database (protein, UniProt P11802 2-303, looked up, variant S285C) Cyclin-dependent kinase 4: ATSRYEPVAEIGVGAYGTVYKARDPHSGHFVALKSVRVPNGGGGGGGLPISTVREVALLRRLEAFEHPNVVRLMDVCATSRTDREIKVTLVFEHVDQDLRTYLDKAPPPGLPAETIKDLMRQFLRGLDFLHANCIVHRDLKPENILVTSGGTVKLADFGLARIYSYQMALTPVVVTLWYRAPEVLLQSTYATPVDMWSVGCIFAEMFRRKPLFCGNSEADQLGKIFDLIGLPPEDDWPRDVSLPRGAFPPRGPRPVQSVVPEMEESGAQLLLEMLTFNPHKRICAFRALQHSYLHKDEGNPE | 125 | 
CDK4 R210Q: CDK4 mutant from COSMIC database (protein, UniProt P11802 2-303, looked up, variant R210Q) Cyclin-dependent kinase 4: ATSRYEPVAEIGVGAYGTVYKARDPHSGHFVALKSVRVPNGGGGGGGLPISTVREVALLRRLEAFEHPNVVRLMDVCATSRTDREIKVTLVFEHVDQDLRTYLDKAPPPGLPAETIKDLMRQFLRGLDFLHANCIVHRDLKPENILVTSGGTVKLADFGLARIYSYQMALTPVVVTLWYRAPEVLLQSTYATPVDMWSVGCIFAEMFRQKPLFCGNSEADQLGKIFDLIGLPPEDDWPRDVSLPRGAFPPRGPRPVQSVVPEMEESGAQLLLEMLTFNPHKRISAFRALQHSYLHKDEGNPE | 74.5 | 
CDK4 D158Y: CDK4 mutant from COSMIC database (protein, UniProt P11802 2-303, looked up, variant D158Y) Cyclin-dependent kinase 4: ATSRYEPVAEIGVGAYGTVYKARDPHSGHFVALKSVRVPNGGGGGGGLPISTVREVALLRRLEAFEHPNVVRLMDVCATSRTDREIKVTLVFEHVDQDLRTYLDKAPPPGLPAETIKDLMRQFLRGLDFLHANCIVHRDLKPENILVTSGGTVKLAYFGLARIYSYQMALTPVVVTLWYRAPEVLLQSTYATPVDMWSVGCIFAEMFRRKPLFCGNSEADQLGKIFDLIGLPPEDDWPRDVSLPRGAFPPRGPRPVQSVVPEMEESGAQLLLEMLTFNPHKRISAFRALQHSYLHKDEGNPE | 230 | 
CDK4 L161L: CDK4 silent variant (C-T) from COSMIC database (protein, UniProt P11802 2-303, looked up, silent L161L nucleotide variant, CDK4 silent variant (C-T) from COSMIC database) Cyclin-dependent kinase 4: ATSRYEPVAEIGVGAYGTVYKARDPHSGHFVALKSVRVPNGGGGGGGLPISTVREVALLRRLEAFEHPNVVRLMDVCATSRTDREIKVTLVFEHVDQDLRTYLDKAPPPGLPAETIKDLMRQFLRGLDFLHANCIVHRDLKPENILVTSGGTVKLADFGLARIYSYQMALTPVVVTLWYRAPEVLLQSTYATPVDMWSVGCIFAEMFRRKPLFCGNSEADQLGKIFDLIGLPPEDDWPRDVSLPRGAFPPRGPRPVQSVVPEMEESGAQLLLEMLTFNPHKRISAFRALQHSYLHKDEGNPE | 59 | 
CDK4 D158N: CDK4 mutant, literature kinase dead (protein, UniProt P11802 2-303, looked up, variant D158N) Cyclin-dependent kinase 4: ATSRYEPVAEIGVGAYGTVYKARDPHSGHFVALKSVRVPNGGGGGGGLPISTVREVALLRRLEAFEHPNVVRLMDVCATSRTDREIKVTLVFEHVDQDLRTYLDKAPPPGLPAETIKDLMRQFLRGLDFLHANCIVHRDLKPENILVTSGGTVKLANFGLARIYSYQMALTPVVVTLWYRAPEVLLQSTYATPVDMWSVGCIFAEMFRRKPLFCGNSEADQLGKIFDLIGLPPEDDWPRDVSLPRGAFPPRGPRPVQSVVPEMEESGAQLLLEMLTFNPHKRISAFRALQHSYLHKDEGNPE | 300 | 
